The record followed here is patent publication US7268108.

B1: Compound No. 3 in the Table, Ac-Nle-Ala-His-DThi-Arg-Trp-NH2 (peptide)
peptide: Ac-[Nle]AH[d2Thi]RW-NH2
B2: Compound No. 4 in the Table, BzlSO2-Nle-Ala-His-DPhe-Arg-Trp-NH2 (peptide)
peptide: Benzenesulfonyl-[Nle]AH[dF]RW-NH2
B3: Compound No. 13 in the Table, Ac-MeNle-Ala-His-DHomoPhe-Arg-Trp-NH2 (peptide)
peptide: Ac-[NMeNle]AH[d(hPhe)]RW-NH2
B4: Compound No. 1 in the Table, Ac-Nle-Ala-His-DPhe-Arg-Trp-NH2 (peptide)
peptide: Ac-[Nle]AH[dF]RW-NH2
B5: Compound No. 2 in the Table, Ac-Nle-Ala-His-DPhe-Lys-Trp-NH2 (peptide)
peptide: Ac-[Nle]AH[dF]KW-NH2
SMILES: CCCC[C@H](NC(C)=O)C(=O)N[C@@H](C)C(=O)N[C@@H](Cc1c[nH]cn1)C(=O)N[C@H](Cc1ccccc1)C(=O)N[C@@H](CCCCN)C(=O)N[C@@H](Cc1c[nH]c2ccccc12)C(N)=O
B6: Compound No. 5 in the Table, Tos-Nle-Ala-His-DPhe-Arg-Trp-NH2 (peptide)
peptide: Tos-[Nle]AH[dF]RW-NH2
B7: Compound No. 6 in the Table, BzlSO2-Nle-Ala-His-DPhe-Lys-Trp-NH2 (peptide)
peptide: Benzenesulfonyl-[Nle]AH[dF]KW-NH2
SMILES: CCCC[C@H](NS(=O)(=O)c1ccccc1)C(=O)N[C@@H](C)C(=O)N[C@@H](Cc1c[nH]cn1)C(=O)N[C@H](Cc1ccccc1)C(=O)N[C@@H](CCCCN)C(=O)N[C@@H](Cc1c[nH]c2ccccc12)C(N)=O
B8: Compound No. 11 in the Table, PyrProp-Nle-Ala-His-DpNO2Phe-Arg-Trp-NH2 (peptide)
peptide: PyrProp-[Nle]AH[dPhe(4-NO2)]RW-NH2
B9: Compound No. 14 in the Table, Ac-Nle-Ala-His-DHomoPhe-Arg-Trp-NH2 (peptide)
peptide: Ac-[Nle]AH[d(hPhe)]RW-NH2

[ ]: non-standard residue; d: D form. The star is where a group is joined. dPhe(4-NO2) = N[C@H](Cc1ccc([N+](=O)[O-])cc1)C(=O)O; Benzenesulfonyl = O=S(=O)(c1ccccc1)*; d(hPhe) = N[C@H](CCc1ccccc1)C(=O)O; d2Thi = N[C@H](Cc1cccs1)C(=O)O; NMeNle = CCCC[C@H](NC)C(=O)O; PyrProp = pyridinepropionyl; Tos = Cc1ccc(S(=O)(=O)*)cc1; Nle = CCCC[C@H](N)C(=O)O

Sequence of melanocortin-1 receptor (MC-1r) on murine melanocytes (line S91 Cloudman) (murine) (Q01727 whole entry): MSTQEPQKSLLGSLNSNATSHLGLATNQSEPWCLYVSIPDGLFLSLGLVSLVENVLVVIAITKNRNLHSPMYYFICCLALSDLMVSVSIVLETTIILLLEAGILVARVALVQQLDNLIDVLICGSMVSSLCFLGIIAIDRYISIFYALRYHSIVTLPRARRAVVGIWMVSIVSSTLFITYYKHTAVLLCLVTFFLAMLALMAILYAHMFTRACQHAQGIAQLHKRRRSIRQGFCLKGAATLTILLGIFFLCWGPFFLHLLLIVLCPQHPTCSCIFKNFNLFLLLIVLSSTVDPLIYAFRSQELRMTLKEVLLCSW

The test has as its target melanocortin-1 receptor (MC-1r) on murine melanocytes (line S91 Cloudman) (murine) (UniProt Q01727). Briefly: cell-based or functional assay.
On to B1, for which the cAMP production (as % of α-MSH) is 10 % of α-MSH.

B2: the cAMP production (as % of α-MSH) was 70 % of α-MSH.

B3: the cAMP production (as % of α-MSH) was 55 % of α-MSH.

On to B4, for which the cAMP production (as % of α-MSH) was 80 % of α-MSH.

As to B5, the cAMP production (as % of α-MSH) is 40 % of α-MSH.

For the molecule B6, the cAMP production (as % of α-MSH) was 100 % of α-MSH.

As for B7, the cAMP production (as % of α-MSH) was 55 % of α-MSH.

B8: the cAMP production (as % of α-MSH) was 150 % of α-MSH.

As for B9, the cAMP production (as % of α-MSH) was 45 % of α-MSH.
